Source: the supplement of paper PMC9732359
± gives the uncertainty stated by the source.

Experiment: protein stability index of a GFP-peptide fusion (yeast GPS) (PSI 1-4); higher = more stable; sorted into four equal gates, so the index is relative within each strain
Procedure, shortened: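 For each peptide, the protein stability index sums the read frequency in every gate after multiplying it by the gate number. Read frequencies came from plasmids that were PCR-amplified from each gate and Illumina-sequenced, with reads assigned to strains by barcodes. The gates were four equal bins of GFP/Cherry fluorescence ratio applied to mid-log yeast in leucine-free medium carrying a pooled library of tiled 17-residue yeast protein peptides fused downstream of GFP on a Cherry-expressing plasmid.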

| Sequence | protein stability index (doa10∆) | protein stability index (pdr5∆) | protein stability index (san1∆) | protein stability index (ubr1∆) |
| --- | --- | --- | --- | --- |
| NKKDKKKEEEEQLSEED [RPN1] | 3.55 ± 0.21 | 3.76 ± 0.23 | 3.28 ± 0.13 | 3.36 ± 0.15 |
| NKKRPSSKKVFSSNLSY [YOR098C/NUP1] | 2.48 ± 0.073 | 2.4 ± 0.063 | 2.08 ± 0.1 | 2.56 ± 0.05 |
| NKNIDIGLLNKSKSSLD [RPN2] | 2.37 ± 0.071 | 2.22 ± 0.097 | 1.76 ± 0.096 | 1.92 ± 0.05 |
| NKNNNNRHNLLNDVVSF [SWI1] | 2.99 ± 0.061 | 1.98 ± 0.036 | 1.99 ± 0.037 | 1.9 ± 0.034 |
| NKNQDAFEAELSNIPLL [ARP9] | 3.12 ± 0.098 | 3.23 ± 0.086 | 3.01 ± 0.084 | 3.31 ± 0.076 |
| NKPIKRMLSSILDINVS [SWP82] | 2.52 ± 0.046 | 2.6 ± 0.041 | 2.48 ± 0.053 | 2.31 ± 0.027 |
| NKRLCDEIATIQSKRLR [RPS17A] | 2.75 ± 0.081 | 2.94 ± 0.063 | 3.1 ± 0.046 | 3.22 ± 0.071 |
| NKRLDVIDGKLPFMQNA [YDL088C/ASM4] | 2.84 ± 0.053 | 2.79 ± 0.053 | 2.44 ± 0.052 | 2.19 ± 0.044 |
| NKSLKYVIHGIELLSDL [LIN1] | 2.81 ± 0.093 | 2.94 ± 0.096 | 2.92 ± 0.075 | 2.87 ± 0.067 |
| NKSSVRPTGGANMATVP [MED6] | 2.69 ± 0.063 | 2.79 ± 0.074 | 2.71 ± 0.1 | 2.83 ± 0.057 |
| NLANEQPVLEKPLKKGS [SIR4] | 2.31 ± 0.18 | 2.83 ± 0.093 | 3.08 ± 0.13 | 2.32 ± 0.089 |
| NLDIAKDLIRTDEALFE [MED4] | 3.44 ± 0.22 | 3.29 ± 0.19 | 2.46 ± 0.28 | 3.31 ± 0.24 |
| NLKFLKNKDSLVSNPHE [SRB4] | 2.68 ± 0.06 | 2.51 ± 0.076 | 2.49 ± 0.05 | 2.84 ± 0.049 |
| NLLKNFISSNDAFNMLS [SNF6] | 1.61 ± 0.099 | 2 ± 0.061 | 1.97 ± 0.13 | 1.98 ± 0.043 |
| NLPGNITVVLGVNGYIW [RRP4] | 2.01 ± 0.15 | 2.64 ± 0.093 | 1.67 ± 0.12 | 2.5 ± 0.066 |
| NLPKEGDIVLTRVTRLS [CSL4] | 2.58 ± 0.13 |  | 2.48 ± 0.26 |  |
| NLQKIDKDSEELDSKTR [MED4] | 2.73 ± 0.091 | 2.98 ± 0.071 | 2.94 ± 0.078 | 3.09 ± 0.053 |
| NLQPASVINNYLREDQM [NUT1] | 2.61 ± 0.075 | 3.08 ± 0.099 | 2.82 ± 0.094 | 2.93 ± 0.14 |
| NLQQQQQQQIQVPLQQT [YGR119C/NUP57] | 2.56 ± 0.13 | 2.76 ± 0.078 | 2.16 ± 0.18 | 3.03 ± 0.11 |
| NLTEFVQMDKIRKIVRK [AAR2] | 2.77 ± 0.14 | 2.43 ± 0.1 | 1.9 ± 0.13 | 2.34 ± 0.13 |
| NLTSEIEDLRADINSNR [YOR098C/NUP1] | 2.98 ± 0.27 | 3.07 ± 0.12 | 2.83 ± 0.12 | 3.03 ± 0.084 |
| NLTYSSGLFVDVKKRTY [RPB2] | 2.31 ± 0.052 | 2.58 ± 0.051 | 2.4 ± 0.071 | 2 ± 0.031 |
| NLVVSGPPQSLYGLNLT [FAS1] | 2.69 ± 0.071 | 2.35 ± 0.059 | 2.51 ± 0.075 | 2.45 ± 0.043 |
| NLYDGAEHKYMPYTINE [BRR2] | 3.08 ± 0.071 | 3.05 ± 0.071 | 3.13 ± 0.048 | 3.28 ± 0.062 |
| NLYTPKAEMPPEHLRKI [PRP8] | 2.53 ± 0.072 | 2.38 ± 0.062 | 2.78 ± 0.073 | 2.12 ± 0.053 |
| NMVLENVKELWTEKKGK [SMD2] | 2.91 ± 0.11 | 2.67 ± 0.098 | 2.47 ± 0.14 | 3.3 ± 0.065 |
| NNDDNGNNNNNNSGNDN [MED2] | 2.93 ± 0.043 | 2.99 ± 0.04 | 3.01 ± 0.034 | 3.05 ± 0.041 |

| Sequence | protein stability index (doa10∆) | protein stability index (pdr5∆) | protein stability index (san1∆) | protein stability index (ubr1∆) |
| --- | --- | --- | --- | --- |
| NNGLPECQVIAAEGLCK [YCG1] | 2.53 ± 0.12 | 3.47 ± 0.16 | 1.65 ± 0.15 | 2.72 ± 0.048 |
| NNGVSNLWKNIFLSKEN [COR1] | 2.98 ± 0.082 | 2.9 ± 0.059 | 2.67 ± 0.089 | 2.4 ± 0.058 |
| NNKIITLVKGPKEPRLK [SKI6] | 2.91 ± 0.2 | 2.86 ± 0.16 |  | 3.14 ± 0.081 |
| NNLEKYPFRYKTWLRNQ [RTT102] | 3.37 ± 0.077 | 3.39 ± 0.053 | 3.32 ± 0.061 | 3.38 ± 0.067 |
| NNLHELWALLNFLLPDI [ISW2] | 2.59 ± 0.052 | 2.07 ± 0.049 | 1.89 ± 0.07 | 2.63 ± 0.041 |
| NNLSSMNLDFDIEEGPI [MCD1] | 2.91 ± 0.046 | 3.15 ± 0.042 | 3.21 ± 0.037 | 3.19 ± 0.032 |
| NNNSNNIMSASGGLFGN [YGL172W/NUP49] | 2.97 ± 0.041 | 3.02 ± 0.041 | 3.13 ± 0.051 | 3.2 ± 0.035 |
| NNNVTAVPAATPANTNN [SWI1] | 2.79 ± 0.046 | 3.08 ± 0.046 | 2.76 ± 0.032 | 2.98 ± 0.042 |
| NNPPKPQKPVPLNVLQD [SNF2] | 3.04 ± 0.049 | 3.38 ± 0.06 | 3.21 ± 0.045 | 3.052 ± 0.028 |
| NNRISNANEISANTNNT [SWP82] | 2.14 ± 0.05 | 2.25 ± 0.049 | 2.54 ± 0.066 | 2.66 ± 0.048 |
| NNRRRSRKRGGENVFLK [SIR3] | 3.6 ± 0.11 | 3.23 ± 0.084 | 3.07 ± 0.086 | 3.33 ± 0.048 |
| NNSANNNAHSSDLGTVV [YMR153W/NUP53] | 3.03 ± 0.15 | 2.62 ± 0.1 | 2.7 ± 0.091 | 2.28 ± 0.044 |
| NNSDDEDVDDEELDITP [IRR1] | 3.25 ± 0.099 | 3.46 ± 0.11 | 3.58 ± 0.083 | 3.31 ± 0.077 |
| NNSKSRYPMNLLEFIID [ECM29] | 2.5 ± 0.086 | 2.69 ± 0.052 | 2.64 ± 0.075 | 2.92 ± 0.097 |
| NNSSITLRCSVVEACGN [YCS4] | 1.78 ± 0.064 | 1.23 ± 0.056 | 1.13 ± 0.14 | 1.25 ± 0.041 |
| NNVKQMVMAGSKGSFIN [RPO21] | 1.57 ± 0.091 | 1.78 ± 0.095 |  | 1.94 ± 0.068 |
| NNVSFNAKDIQIPVYDT [FAS1] | 2.36 ± 0.041 | 2.49 ± 0.046 | 2.18 ± 0.048 | 2.64 ± 0.041 |
| NNYNSRIQLMNDFTTKL [MED1] | 2.89 ± 0.075 | 2.85 ± 0.075 | 2.98 ± 0.058 | 3.08 ± 0.059 |
| NPHQDLQAQDRAHRIGQ [SNF2] | 3.03 ± 0.077 | 3.04 ± 0.074 | 2.9 ± 0.07 | 3.19 ± 0.053 |
| NPIANHTVTNSPNPTLQ [SNF5] | 2.64 ± 0.038 | 2.83 ± 0.046 | 2.65 ± 0.038 | 2.65 ± 0.03 |
| NPIDIKRRFGELMDRTG [RPP1] | 3.08 ± 0.12 | 3.19 ± 0.18 | 2.26 ± 0.26 | 2.9 ± 0.059 |
| NPLKNKQVLLRLNPYAK [RPL4A] | 1.34 ± 0.17 | 1.21 ± 0.11 | 1.15 ± 0.15 | 1.13 ± 0.18 |
| NPLWNAIIVAGVQSNGD [PRE4] | 1.25 ± 0.054 | 1.37 ± 0.044 | 1.53 ± 0.075 | 1.89 ± 0.04 |
| NPNNVNVQTQYREAPVI [RET1] | 2.5 ± 0.085 | 2.73 ± 0.045 | 2.48 ± 0.1 | 2.63 ± 0.057 |
| NPPSYQSSEDVITIKSR [RPB7] | 2.78 ± 0.17 |  | 2.6 ± 0.12 | 2.25 ± 0.28 |
| NPRKRKASVLEISPQDS [GAL11] |  |  |  | 3.1 ± 0.13 |
